Test results taken from the supplement of paper PMC11246515.
± gives the standard deviation of the averaged measurements.

Assay: total protein half-life in vivo (active degradation + dilution); higher = more stable protein
[1] = E. coli NCM3722 delta-clpP delta-lon delta-hslV, growth: N-lim chemostat, doubling time 6 h
[2] = E. coli NCM3722 delta-clpP, growth: N-lim chemostat, doubling time 6 h
[3] = E. coli NCM3722 delta-hslV, growth: N-lim chemostat, doubling time 6 h
[4] = E. coli NCM3722 delta-lon, growth: N-lim chemostat, doubling time 6 h
[5] = E. coli NCM3722 delta-smpB, growth: N-lim chemostat, doubling time 6 h
[6] = wild type E. coli NCM3722, growth: C-lim chemostat, doubling time 3 h
[7] = wild type E. coli NCM3722, growth: C-lim chemostat, doubling time 6 h
[8] = wild type E. coli NCM3722, growth: C-lim chemostat, doubling time 12 h
[9] = wild type E. coli NCM3722, growth: N-lim chemostat, doubling time 6 h
[10] = wild type E. coli NCM3722, growth: N-lim chemostat, doubling time 12 h
[11] = wild type E. coli NCM3722, growth: P-lim chemostat, doubling time 6 h
[12] = wild type E. coli NCM3722, growth: P-lim chemostat, doubling time 12 h

Sequence: MTAIAPVITIDGPSGAGKGTLCKAMAEALQWHLLDSGAIYRVLALAALHHHVDVASEDALVPLASHLDVRFVSTNGNLEVILEGEDVSGEIRTQEVANAASQVAAFPRVREALLRRQRAFRELPGLIADGRDMGTVVFPDAPVKIFLDASSEERAHRRMLQLQEKGFSVNFERLLAEIKERDDRDRNRAVAPLVPAADALVLDSTTLSIEQVIEKALQYARQKLALA [P0A6I0]
- total protein half-life in vivo [1]: 4.56 ± 0.24 h
- total protein half-life in vivo [2]: 4.93 ± 0.48 h
- total protein half-life in vivo [3]: 4.14 ± 0.16 h
- total protein half-life in vivo [4]: 4.79 ± 0.34 h
- total protein half-life in vivo [5]: 3.86 ± 0.083 h
- total protein half-life in vivo [6]: 3.05 ± 0.14 h
- total protein half-life in vivo [7]: 5.44 ± 0.4 h
- total protein half-life in vivo [8]: 9.23 ± 1.1 h
- total protein half-life in vivo [9]: 4.15 ± 0.046 h
- total protein half-life in vivo [10]: 6.34 ± 1.1 h
- total protein half-life in vivo [11]: 4.71 ± 0.26 h
- total protein half-life in vivo [12]: 9.34 ± 0.78 h

Sequence: MTAKTAPKVTLWEFFQQLGKTFMLPVALLSFCGIMLGIGSSLSSHDVITLIPVLGNPVLQAIFTWMSKIGSFAFSFLPVMFCIAIPLGLARENKGVAAFAGFIGYAVMNLAVNFWLTNKGILPTTDAAVLKANNIQSILGIQSIDTGILGAVIAGIIVWMLHERFHNIRLPDALAFFGGTRFVPIISSLVMGLVGLVIPLVWPIFAMGISGLGHMINSAGDFGPMLFGTGERLLLPFGLHHILVALIRFTDAGGTQEVCGQTVSGALTIFQAQLSCPTTHGFSESATRFLSQGKMPAFLGGLPGAALAMYHCARPENRHKIKGLLISGLIACVVGGTTEPLEFLFLFVAPVLYVIHALLTGLGFTVMSVLGVTIGNTDGNIIDFVVFGILHGLSTKWYMVPVVAAIWFVVYYVIFRFAITRFNLKTPGRDSEVASSIEKAVAGAPGKSGYNVPAILEALGGADNIVSLDNCITRLRLSVKDMSLVNVQALKDNRAIGVVQLNQHNLQVVIGPQVQSVKDEMAGLMHTVQA
- total protein half-life in vivo [6]: 1.42 ± 0.085 h
- total protein half-life in vivo [8]: 2.5 ± 0.29 h

Sequence: MTDIAQLLGKDADNLLQHRCMTIPSDQLYLPGHDYVDRVMIDNNRPPAVLRNMQTLYNTGRLAGTGYLSILPVDQGVEHSAGASFAANPLYFDPKNIVELAIEAGCNCVASTYGVLASVSRRYAHRIPFLVKLNHNETLSYPNTYDQTLYASVEQAFNMGAVAVGATIYFGSEESRRQIEEISAAFERAHELGMVTVLWAYLRNSAFKKDGVDYHVSADLTGQANHLAATIGADIVKQKMAENNGGYKAINYGYTDDRVYSKLTSENPIDLVRYQLANCYMGRAGLINSGGAAGGETDLSDAVRTAVINKRAGGMGLILGRKAFKKSMADGVKLINAVQDVYLDSKITIA [P0A991]
- total protein half-life in vivo [1]: 6.08 ± 0.41 h
- total protein half-life in vivo [2]: 5.88 ± 0.5 h
- total protein half-life in vivo [3]: 6.17 ± 0.49 h
- total protein half-life in vivo [4]: 5.99 ± 0.7 h
- total protein half-life in vivo [5]: 5.21 ± 0.23 h
- total protein half-life in vivo [6]: 3.37 ± 0.44 h
- total protein half-life in vivo [7]: 6.705 ± 0.067 h
- total protein half-life in vivo [8]: 12.9 ± 0.75 h
- total protein half-life in vivo [9]: 5.51 ± 0.26 h
- total protein half-life in vivo [10]: 10.1 ± 0.44 h
- total protein half-life in vivo [11]: 6.06 ± 0.11 h
- total protein half-life in vivo [12]: 13.3 ± 0.99 h

Sequence: MTDKTIAFSLLDLAPIPEGSSAREAFSHSLDLARLAEKRGYHRYWLAEHHNMTGIASAATSVLIGYLAANTTTLHLGSGGVMLPNHSPLVIAEQFGTLNTLYPGRIDLGLGRAPGSDQRTMMALRRHMSGDIDNFPRDVAELVDWFDARDPNPHVRPVPGYGEKIPVWLLGSSLYSAQLAAQLGLPFAFASHFAPDMLFQALHLYRSNFKPSARLEKPYAMVCINIIAADSNRDAEFLFTSMQQAFVKLRRGETGQLPPPIQNMDQFWSPSEQYGVQQALSMSLVGDKAKVRHGLQSILRETDADEIMVNGQIFDHQARLHSFELAMDVKEELLG [P0ADV5]
- total protein half-life in vivo [1]: 4.46 ± 0.36 h
- total protein half-life in vivo [2]: 4.24 ± 0.94 h
- total protein half-life in vivo [3]: 5.06 ± 1.8 h
- total protein half-life in vivo [4]: 3.94 ± 0.19 h
- total protein half-life in vivo [5]: 3.55 ± 0.21 h
- total protein half-life in vivo [6]: 3.07 ± 0.28 h
- total protein half-life in vivo [9]: 4.47 ± 1.3 h
- total protein half-life in vivo [10]: 5.76 ± 1.3 h
- total protein half-life in vivo [11]: 6.06 ± 0.55 h
- total protein half-life in vivo [12]: 11.1 ± 0.18 h

Sequence: MTDKTSLSYKDAGVDIDAGNALVGRIKGVVKKTRRPEVMGGLGGFGALCALPQKYREPVLVSGTDGVGTKLRLAMDLKRHDTIGIDLVAMCVNDLVVQGAEPLFFLDYYATGKLDVDTASAVISGIAEGCLQSGCSLVGGETAEMPGMYHGEDYDVAGFCVGVVEKSEIIDGSKVSDGDVLIALGSSGPHSNGYSLVRKILEVSGCDPQTTELDGKPLADHLLAPTRIYVKSVLELIEKVDVHAIAHLTGGGFWENIPRVLPDNTQAVIDESSWQWPEVFNWLQTAGNVEHHEMYRTFNCGVGMIIALPAPEVDKALALLNANGENAWKIGIIKASDSEQRVVIE
- total protein half-life in vivo [1]: 4.99 ± 0.091 h
- total protein half-life in vivo [2]: 4.62 ± 1 h
- total protein half-life in vivo [3]: 4.47 ± 0.064 h
- total protein half-life in vivo [4]: 5.23 ± 0.1 h
- total protein half-life in vivo [5]: 4.258 ± 0.021 h
- total protein half-life in vivo [6]: 2.94 ± 0.24 h
- total protein half-life in vivo [7]: 5.66 ± 0.063 h
- total protein half-life in vivo [8]: 11.1 ± 0.42 h
- total protein half-life in vivo [9]: 4.53 ± 0.17 h
- total protein half-life in vivo [10]: 7.47 ± 0.71 h
- total protein half-life in vivo [11]: 4.7 ± 0.29 h
- total protein half-life in vivo [12]: 9.07 ± 2 h

Sequence: MTDLHTDVERYLRYLSVERQLSPITLLNYQRQLEAIINFASENGLQSWQQCDVTMVRNFAVRSRRKGLGAASLALRLSALRSFFDWLVSQNELKANPAKGVSAPKAPRHLPKNIDVDDMNRLLDIDINDPLAVRDRAMLEVMYGAGLRLSELVGLDIKHLDLESGEVWVMGKGSKERRLPIGRNAVAWIEHWLDLRDLFGSEDDALFLSKLGKRISARNVQKRFAEWGIKQGLNNHVHPHKLRHSFATHMLESSGDLRGVQELLGHANLSTTQIYTHLDFQHLASVYDAAHPRAKRGK [P0A8P6]
- total protein half-life in vivo [1]: 4.56 ± 0.07 h
- total protein half-life in vivo [2]: 2.2684 ± 0.0015 h
- total protein half-life in vivo [3]: 1.38 h
- total protein half-life in vivo [4]: 2.36 ± 0.25 h
- total protein half-life in vivo [5]: 1.64 ± 0.28 h
- total protein half-life in vivo [6]: 1.59 ± 0.34 h
- total protein half-life in vivo [7]: 2.67 h
- total protein half-life in vivo [9]: 1.81 h
- total protein half-life in vivo [10]: 2.08 ± 0.12 h
- total protein half-life in vivo [11]: 1.87 ± 0.3 h
- total protein half-life in vivo [12]: 3.1 ± 0.58 h

Sequence: MTDLSHSREKDKINPVVFYTSAGLILLFSLTTILFRDFSALWIGRTLDWVSKTFGWYYLLAATLYIVFVVCIACSRFGSVKLGPEQSKPEFSLLSWAAMLFAAGIGIDLMFFSVAEPVTQYMQPPEGAGQTIEAARQAMVWTLFHYGLTGWSMYALMGMALGYFSYRYNLPLTIRSALYPIFGKRINGPIGHSVDIAAVIGTIFGIATTLGIGVVQLNYGLSVLFDIPDSMAAKAALIALSVIIATISVTSGVDKGIRVLSELNVALALGLILFVLFMGDTSFLLNALVLNVGDYVNRFMGMTLNSFAFDRPVEWMNNWTLFFWAWWVAWSPFVGLFLARISRGRTIRQFVLGTLIIPFTFTLLWLSVFGNSALYEIIHGGAAFAEEAMVHPERGFYSLLAQYPAFTFSASVATITGLLFYVTSADSGALVLGNFTSQLKDINSDAPGWLRVFWSVAIGLLTLGMLMTNGISALQNTTVIMGLPFSFVIFFVMAGLYKSLKVEDYRRESANRDTAPRPLGLQDRLSWKKRLSRLMNYPGTRYTKQMMETVCYPAMEEVAQELRLRGAYVELKSLPPEEGQQLGHLDLLVHMGEEQNFVYQIWPQQYSVPGFTYRARSGKSTYYRLETFLLEGSQGNDLMDYSKEQVITDILDQYERHLNFIHLHREAPGHSVMFPDA [P0ABC9]
- total protein half-life in vivo [1]: 6.17 ± 0.24 h
- total protein half-life in vivo [2]: 7.418 ± 0.034 h
- total protein half-life in vivo [3]: 5.75 ± 1.3 h
- total protein half-life in vivo [4]: > 8 h
- total protein half-life in vivo [5]: 5.11 ± 0.14 h
- total protein half-life in vivo [7]: 5.56 h
- total protein half-life in vivo [8]: 11.6 ± 2 h
- total protein half-life in vivo [9]: 6.17 h
- total protein half-life in vivo [10]: 9.97 h
- total protein half-life in vivo [11]: 6.22 ± 1.3 h
- total protein half-life in vivo [12]: 13.1 ± 1.3 h

Sequence: MTDQAEKKHSAFWGVMVIAGTVIGGGMFALPVDLAGAWFFWGAFILIIAWFSMLHSGLLLLEANLNYPVGSSFNTITKDLIGNTWNIISGITVAFVLYILTYAYISANGAIISETISMNLGYHANPRIVGICTAIFVASVLWLSSLAASRITSLFLGLKIISFVIVFGSFFFQVDYSILRDATSSTAGTSYFPYIFMALPVCLASFGFHGNIPSLIICYGKRKDKLIKSVVFGSLLALVIYLFWLYCTMGNIPRESFKAIISSGGNVDSLVKSFLGTKQHGIIEFCLLVFSNLAVASSFFGVTLGLFDYLADLFKIDNSHGGRFKTVLLTFLPPALLYLIFPNGFIYGIGGAGLCATIWAVIIPAVLAIKARKKFPNQMFTVWGGNLIPAIVILFGITVILCWFGNVFNVLPKFG
- total protein half-life in vivo [6]: 3.24 ± 0.27 h
- total protein half-life in vivo [7]: 5.07 ± 1.3 h
- total protein half-life in vivo [8]: 11 h

Sequence: MTDSELMQLSEQVGQALKARGATVTTAESCTGGWVAKVITDIAGSSAWFERGFVTYSNEAKAQMIGVREETLAQHGAVSEPVVVEMAIGALKAARADYAVSISGIAGPDGGSEEKPVGTVWFAFATARGEGITRRECFSGDRDAVRRQATAYALQTLWQQFLQNT [P0A6G3]
- total protein half-life in vivo [1]: 6 ± 0.73 h
- total protein half-life in vivo [3]: 4.97 ± 0.2 h
- total protein half-life in vivo [4]: 5.11 ± 0.27 h
- total protein half-life in vivo [5]: 4.06 ± 0.093 h
- total protein half-life in vivo [7]: 5.59 ± 0.56 h
- total protein half-life in vivo [8]: 11 ± 1.9 h
- total protein half-life in vivo [9]: 4.67 ± 0.057 h
- total protein half-life in vivo [10]: 7.78 ± 0.54 h
- total protein half-life in vivo [11]: 5.897 ± 0.055 h
- total protein half-life in vivo [12]: 11.7 ± 0.88 h

Sequence: MTEFTTLLQQGNAWFFIPSAILLGALHGLEPGHSKTMMAAFIIAIKGTIKQAVMLGLAATISHTAVVWLIAFGGMVISKRFTAQSAEPWLQLISAVIIISTAFWMFWRTWRGERNWLENMHGHDYEHHHHDHEHHHDHGHHHHHEHGEYQDAHARAHANDIKRRFDGREVTNWQILLFGLTGGLIPCPAAITVLLICIQLKALTLGATLVVSFSIGLALTLVTVGVGAAISVQQVAKRWSGFNTLAKRAPYFSSLLIGLVGVYMGVHGFMGIMR
- total protein half-life in vivo [3]: 4.77 h
- total protein half-life in vivo [4]: 4.13 h
- total protein half-life in vivo [5]: 5.43 ± 0.75 h
- total protein half-life in vivo [6]: > 4 h
- total protein half-life in vivo [7]: 5.864 ± 0.02 h
- total protein half-life in vivo [8]: 10.8 h
- total protein half-life in vivo [11]: 5.97 h
- total protein half-life in vivo [12]: 11.6 h

Sequence: MTEIQRLLTETIESLNTREKRDNKPRFSISFIRKHPGLFIGMYVAFFATLAVMLQSETLSGSVWLLVVLFILLNGFFFFDVYPRYRYEDIDVLDFRVCYNGEWYNTRFVPAALVEAILNSPRVADVHKEQLQKMIVRKGELSFYDIFTLARAESTS [P0AAS0]
- total protein half-life in vivo [6]: 0.508 ± 0.022 h
- total protein half-life in vivo [7]: 0.836 h
- total protein half-life in vivo [9]: 2.01 h
- total protein half-life in vivo [11]: 0.489 h
- total protein half-life in vivo [12]: 0.554 h
